The target in this assay is T1, peptide fragment of the human prorenin receptor protein, 200-213th polypeptide (SEQ ID NO: 37) (human).
T1 construct: For immunisation, KLH was linked to its amino terminus; also called peptide fragment of the prorenin receptor
T1 peptide: HKHLAKDHSPDLYS
Nature of the assay: BLI (BLItz, Pall ForteBio), antibody in hybridoma culture liquid against the prorenin receptor peptide fragment.

B1: anti-prorenin receptor monoclonal antibody 8_6 (antibody, IgM, V domains shown)
VH: VQLVESGGGLVQPGRSLKLSCAASGFTFSNYYMAWVRHAPKKGLEWVATISTSGSRTYYPDSVKGRFTISRDNAKSSLYLQMNSLKSEDTATYYCARHEFGAFDYWGQGVTV
VL: DIVMTQSPSSLAVSAGETVTINCKSSQSLLYSGNQKNYLAWYQQKPGQSPKLLIYWASTRQSGVPDRFIGSGSGTDFTLTISSVQAEDLAIYYCQQYYDTPYTFGAGTK
notes: Rat hybridoma antibody, isotype IgM; Hybridoma culture liquid was tested in the BLI screen
With B1, the binding result is “binds”.

The values are drawn from patent WO2018084236A1 (dated 2018).
